Measurements published in the supplement of paper PMC10567573.

B1: RPS21 (parent)
chain: AEVSWEPGRREGCDICAGKAGCPI

Variants of: B1
Test: protein stability index of a GFP-peptide fusion (GPS, HEK-293T) (PSI 1-6); higher = more stable
Conditions: c terminus: a fixed tail appended
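Also: lentivirally expressed fusions sorted by FACS into six bins by GFP to DsRed ratio, PSI derived from sequencing read proportions per bin multiplied by bin number.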

| Variant | protein stability index |
| --- | --- |
| AEVSREPGRREGCDICAGKAGCPI [W5R] | 3.04 |
| AEVSEEPGRREGCDICAGKAGCPI [W5E] | 4.64 |
| AEVSTEPGRREGCDICAGKAGCPI [W5T] | 4.04 |
| AEVSCEPGRREGCDICAGKAGCPI [W5C] | 4.24 |
| AEVSSEPGRREGCDICAGKAGCPI [W5S] | 4.06 |
| AEVSFEPGRREGCDICAGKAGCPI [W5F] | 3.53 |
| AEVSPEPGRREGCDICAGKAGCPI [W5P] | 5.67 |
| AEVSIEPGRREGCDICAGKAGCPI [W5I] | 3.7 |
| AEVSVEPGRREGCDICAGKAGCPI [W5V] | 4.44 |
| AEVSDEPGRREGCDICAGKAGCPI [W5D] | 4.85 |
| KEVSWEPGRREGCDICAGKAGCPI [A1K] | 2.67 |
| GEVSWEPGRREGCDICAGKAGCPI [A1G] | 3.57 |
| HEVSWEPGRREGCDICAGKAGCPI [A1H] | 2.65 |
| EEVSWEPGRREGCDICAGKAGCPI [A1E] | 3.49 |
| SEVSWEPGRREGCDICAGKAGCPI [A1S] | 2.71 |
| AEVSWEPGRREGCDICAHKAGCPI [G18H] | 2.97 |
| AEVSWEPGRREGCDICAMKAGCPI [G18M] | 3.06 |
| AEVSWEPGRREGCDICADKAGCPI [G18D] | 4.25 |
| AEVSWEPGRREGCDICAFKAGCPI [G18F] | 2.75 |
| AEVSWEPGRREGCDICAIKAGCPI [G18I] | 2.24 |
| AEVSWEPGRREGCDICASKAGCPI [G18S] | 3.63 |
| AEVSWEPGRREGCDICAAKAGCPI [G18A] | 3.08 |
| AEVSWEPGRREGCDICATKAGCPI [G18T] | 3.28 |
| AEVSWEPGRREGCDICAWKAGCPI [G18W] | 2.74 |

| Variant | protein stability index |
| --- | --- |
| AEVSWEPGRREGCDICAGKAGWPI [C22W] | 2.82 |
| AEVSWEPGRREGCDICAGKAGFPI [C22F] | 2.28 |
| AEVSWEPGRREGCDICAGKAGKPI [C22K] | 2.99 |
| AEVSWEPGRREGCDICAGKAGYPI [C22Y] | 2.2 |
| AEVSWEPGRREGCDICAGKAGPPI [C22P] | 3.34 |
| AEVSWEPGRREGCDICAGKAGEPI [C22E] | 3.88 |
| AEVSWEPGRREGCDICAGKAGDPI [C22D] | 3.66 |
| AEVSWEPGRREPCDICAGKAGCPI [G12P] | 3.21 |
| AEVSWEPGRRETCDICAGKAGCPI [G12T] | 3.67 |
| AEVSWEPGRREKCDICAGKAGCPI [G12K] | 2.5 |
| AEVSWEPGRREMCDICAGKAGCPI [G12M] | 4.41 |
| AEVSWEPGRREECDICAGKAGCPI [G12E] | 3.86 |
| AEVSWEPGRREGCDICAGKAGCGI [P23G] | 3.82 |
| AEVSWEPGRREGCDICAGKAGCNI [P23N] | 2.62 |
| AEVSWEPGRREGCDICAGKAGCII [P23I] | 3.05 |
| AEVSWEPGRREGCDICAGKAGCDI [P23D] | 3.85 |
| AEVSWEPGRREGCDICAGKAGCFI [P23F] | 2.04 |
| AEVSWEPGRREGCDICAGKAGCQI [P23Q] | 2.68 |
| AEVSWEPGRREGCDICAGKAGCKI [P23K] | 3.04 |
| AEVSWEPGRREGCDICAGKAGCLI [P23L] | 2.92 |
| AEVSWEPGRREGCDICAGKAGCTI [P23T] | 2.27 |
| AEVSWEPGRREGCIICAGKAGCPI [D14I] | 3.65 |
| AEVSWEPGRREGCMICAGKAGCPI [D14M] | 2.18 |
| AEVSWEPGRREGCHICAGKAGCPI [D14H] | 2.5 |

| Variant | protein stability index |
| --- | --- |
| AEVSWEPGRREGCVICAGKAGCPI [D14V] | 3.22 |
| AEVSWEPGRREGCNICAGKAGCPI [D14N] | 2.35 |
| AEVSWEPGRREGCKICAGKAGCPI [D14K] | 3.66 |
| AEVSWEPGRFEGCDICAGKAGCPI [R10F] | 2.46 |
| AEVSWEPGRYEGCDICAGKAGCPI [R10Y] | 4.13 |
| AEVSWEPGRKEGCDICAGKAGCPI [R10K] | 3.32 |
| AEVSWEPGRGEGCDICAGKAGCPI [R10G] | 2.52 |
| AEVSWEPGREEGCDICAGKAGCPI [R10E] | 2.81 |
| AEVSWEPGRLEGCDICAGKAGCPI [R10L] | 2.84 |
| AEVSWEPGRSEGCDICAGKAGCPI [R10S] | 3.14 |
| AEVSWEPGRVEGCDICAGKAGCPI [R10V] | 2.69 |
| AEVSWEPGRHEGCDICAGKAGCPI [R10H] | 4.11 |
| AEVSWEPNRREGCDICAGKAGCPI [G8N] | 3.41 |
| AEVSWEPPRREGCDICAGKAGCPI [G8P] | 3.24 |
| AEVSWEPKRREGCDICAGKAGCPI [G8K] | 3.03 |
| AEVSWEPTRREGCDICAGKAGCPI [G8T] | 2.72 |
| AEVSWEPWRREGCDICAGKAGCPI [G8W] | 2.01 |
| AEVSWEPRRREGCDICAGKAGCPI [G8R] | 2.77 |
| AEVSWEPHRREGCDICAGKAGCPI [G8H] | 2.54 |
| AEVSWEPGRREGCDGCAGKAGCPI [I15G] | 4.06 |
| AEVSWEPGRREGCDLCAGKAGCPI [I15L] | 2.43 |
| AEVSWEPGRREGCDCCAGKAGCPI [I15C] | 4.43 |
| AEVSWEPGRREGCDVCAGKAGCPI [I15V] | 3.53 |
| AEVSWEPGRREGCDTCAGKAGCPI [I15T] | 3.83 |

| Variant | protein stability index |
| --- | --- |
| AEVSWEPGRREGCDSCAGKAGCPI [I15S] | 4.14 |
| AEVSWEPGRREGCDQCAGKAGCPI [I15Q] | 3.46 |
| AEVSWEPGRREGCDECAGKAGCPI [I15E] | 4.25 |
| AEVSWEPGRREGCDYCAGKAGCPI [I15Y] | 3.21 |
| AEVSWEPGRREGCDHCAGKAGCPI [I15H] | 4.36 |
| AETSWEPGRREGCDICAGKAGCPI [V3T] | 3.66 |
| AEHSWEPGRREGCDICAGKAGCPI [V3H] | 4.16 |
| AESSWEPGRREGCDICAGKAGCPI [V3S] | 3.34 |
| AEESWEPGRREGCDICAGKAGCPI [V3E] | 4.58 |
| AEQSWEPGRREGCDICAGKAGCPI [V3Q] | 3.17 |
| AEASWEPGRREGCDICAGKAGCPI [V3A] | 4.16 |
| AEDSWEPGRREGCDICAGKAGCPI [V3D] | 4 |
| AEGSWEPGRREGCDICAGKAGCPI [V3G] | 4 |
| AEFSWEPGRREGCDICAGKAGCPI [V3F] | 2.68 |
| AEPSWEPGRREGCDICAGKAGCPI [V3P] | 3.87 |
| ATVSWEPGRREGCDICAGKAGCPI [E2T] | 2.84 |
| ANVSWEPGRREGCDICAGKAGCPI [E2N] | 3.51 |
| ACVSWEPGRREGCDICAGKAGCPI [E2C] | 2.91 |
| AKVSWEPGRREGCDICAGKAGCPI [E2K] | 1.92 |
| AQVSWEPGRREGCDICAGKAGCPI [E2Q] | 2.36 |
| AFVSWEPGRREGCDICAGKAGCPI [E2F] | 1.23 |
| AGVSWEPGRREGCDICAGKAGCPI [E2G] | 3.38 |
